# From patent US20210070881A1 (DENALI THERAPEUTICS, published 2021)
# Changes are numbered by the printed parent chain. Like-named read-outs stand apart in the source and are kept apart here.
# B1: hu2H8v1 (antibody, V domains shown)
# VH: QVQLVQSGAEVKKPGASVKVSCKASGYTFTNFWIHWVRQAPGQGLEWMGMIDPSDSYTKYNQKFKARVTMTRDTSTSTTYMELSSLRSEDTAVYYCARSGVAFPYWGQGTLVTVSS
# VL: DIQMTQSPSSLSASVGDRVTITCKASQDVGRNVAWYQQKPGKAPKLLIYSASHRYSGVPSRFSGSGSGTDFTLTISSLQPEDFATYYCQQYNSYPYTFGQGTKVEIK
# notes: humanized; also called hu2H8_HC1 + hu2H8_LC1
# B2: hu2H8v2 (antibody, V domains shown)
# VH: B1 VH with V37L
# VL: B1 VL
# notes: humanized; also called hu2H8_HC2 + hu2H8_LC1
# B3: hu2H8v3 (antibody, V domains shown)
# VH: B1 VH with V37L, R72V
# VL: B1 VL
# notes: humanized; also called hu2H8_HC3 + hu2H8_LC1
# B4: 2H8.03 (antibody, human IgG1, V domains shown)
# VH: EVQLQQSGAELVRPGTSVKLSCKASGYTFTSYWIHWVKQRPGQGLEWIGMIDPSDSYTKYNQKFKDKATLTVDTSSSTTYMHLSSLTSEDSAVYYCARSGVAFPYWGQRTLVTVSA
# VL: DIVMTQSQKFMSKSVGDTVSVTCKASQDVGRNVAWYQQKSGQSPKSLIYSASHRYSGVPDRFTGSGSGTDFTLTISNVQSEDLADYFCQQYNSYPYTFGGGTRLEIK
# notes: human IgG1/kappa; also called 2H8_HCvar3 + 2H8_LC
# B5: 2H8.27 (antibody, human IgG1, V domains shown)
# VH: B4 VH
# VL: B4 VL with K13T, T18R, D28N, R31T, S46A, D85E, R103K
# notes: human IgG1/kappa; also called 2H8_HCvar3 + 2H8_LCvar5
# B6: 2H8.30 (antibody, human IgG1, V domains shown)
# VH: EVQLQQSGAELVRPGTSVKLSCKASGYTFNNYWMHWVKQRPGQGLEWIGMIDPSDDDIKNNQKFKGKATLTVDTSSSTAYMQLISLTSEDSAVYYCARSGVALPYWGQGTLVTVSA
# VL: B4 VL with K13T, T18R, D28N, R31T, S46A, D85E, R103K
# notes: human IgG1/kappa; also called 2H8_HCvar6 + 2H8_LCvar5
# B7: 2H8.29 (antibody, human IgG1, V domains shown)
# VH: EVQLQQPGAEVVRPGTSVKLSCKASGYTFTNYWMHWVKQRPGQGLEWIGMIDPSDNYTKYNQKLKGKATLTVDTSSSTANMHVNSLTSEDSAVYFCARSGVAFPYWGQGTLVTVSA
# VL: B4 VL with K13T, T18R, D28N, R31T, S46A, D85E, R103K
# notes: human IgG1/kappa; also called 2H8_HCvar5 + 2H8_LCvar5
# B8: 2H8.34 (antibody, human IgG1, V domains shown)
# VH: EIQLQQSGTELVRPGTSVKLSCKASGYTFTNYWMHWVKQRPGQGLEWIGMIDPSAAYTNYNQNFKGKATLTVDTSSGTAYMQLSSLTSEDSAVYYCARSGVAFPYWGQGTTVTVSS
# VL: B4 VL with V3Q, T18R, D28N, R31S
# notes: human IgG1/kappa; also called 2H8_HCvar4 + 2H8_LCvar6
# B9: 2H8.26 (antibody, human IgG1, V domains shown)
# VH: B8 VH with I2V, S7P, V37I, A55D, A56T, N59K, Y60F, G77S, S84N
# VL: B4 VL with K13T, T18R, D28N, R31T, S46A, D85E, R103K
# notes: human IgG1/kappa; also called 2H8_HCvar2 + 2H8_LCvar5
# B10: 2H8.09 (antibody, human IgG1, V domains shown)
# VH: B4 VH
# VL: B4 VL with K13T, T18R, D28N, R31T, S40P, S46A, D85E, P95M, R103K
# notes: human IgG1/kappa; also called 2H8_HCvar3 + 2H8_LCvar2
# B11: 2H8.21 (antibody, human IgG1, V domains shown)
# VH: B4 VH
# VL: B4 VL with K13T, T18R, V21I, D28N, R31T, S40P, S46A, H53Y, D85E, R103K
# notes: human IgG1/kappa; also called 2H8_HCvar3 + 2H8_LCvar4
# B12: 2H8.15 (antibody, human IgG1, V domains shown)
# VH: B4 VH
# VL: B4 VL with V3Q, K13T, V15I, T18R, D28N, R31T, S40P, R54W, D85E, R103K
# notes: human IgG1/kappa; also called 2H8_HCvar3 + 2H8_LCvar3
# B13: 2H8.16 (antibody, human IgG1, V domains shown)
# VH: B8 VH
# VL: B4 VL with V3Q, K13T, V15I, T18R, D28N, R31T, S40P, R54W, D85E, R103K
# notes: human IgG1/kappa; also called 2H8_HCvar4 + 2H8_LCvar3
# B14: 2H8.40 (antibody, human IgG1, V domains shown)
# VH: B8 VH
# VL: B4 VL with V3L, K13T, T18R, D28N, K39I, S46P, A84V, D85E, Y86F, R103K
# notes: human IgG1/kappa; also called 2H8_HCvar4 + 2H8_LCvar7
# B15: 2H8.14 (antibody, human IgG1, V domains shown)
# VH: B8 VH with I2V, S7P, V37I, A55D, A56T, N59K, Y60F, G77S, S84N
# VL: B4 VL with V3Q, K13T, V15I, T18R, D28N, R31T, S40P, R54W, D85E, R103K
# notes: human IgG1/kappa; also called 2H8_HCvar2 + 2H8_LCvar3
# B16: 2H8.23 (antibody, human IgG1, V domains shown)
# VH: B7 VH
# VL: B4 VL with K13T, T18R, V21I, D28N, R31T, S40P, S46A, H53Y, D85E, R103K
# notes: human IgG1/kappa; also called 2H8_HCvar5 + 2H8_LCvar4
# B17: 2H8.38 (antibody, human IgG1, V domains shown)
# VH: B8 VH with I2V, S7P, V37I, A55D, A56T, N59K, Y60F, G77S, S84N
# VL: B4 VL with V3L, K13T, T18R, D28N, K39I, S46P, A84V, D85E, Y86F, R103K
# notes: human IgG1/kappa; also called 2H8_HCvar2 + 2H8_LCvar7
# Tests used:
# [1] = target: T1, recombinant BACE1 (BACE1 extracellular domain, R&D Systems Cat#931-AS) (UniProt P56817 22-457); test: SPR Biacore
# T1 construct: extracellular domain; also called BACE1 extracellular domain protein
# [2] = target: T1, recombinant BACE1 (BACE1 extracellular …); test: SPR Biacore; remark: listed apart in the source
# T1 sequence (P56817 22-457): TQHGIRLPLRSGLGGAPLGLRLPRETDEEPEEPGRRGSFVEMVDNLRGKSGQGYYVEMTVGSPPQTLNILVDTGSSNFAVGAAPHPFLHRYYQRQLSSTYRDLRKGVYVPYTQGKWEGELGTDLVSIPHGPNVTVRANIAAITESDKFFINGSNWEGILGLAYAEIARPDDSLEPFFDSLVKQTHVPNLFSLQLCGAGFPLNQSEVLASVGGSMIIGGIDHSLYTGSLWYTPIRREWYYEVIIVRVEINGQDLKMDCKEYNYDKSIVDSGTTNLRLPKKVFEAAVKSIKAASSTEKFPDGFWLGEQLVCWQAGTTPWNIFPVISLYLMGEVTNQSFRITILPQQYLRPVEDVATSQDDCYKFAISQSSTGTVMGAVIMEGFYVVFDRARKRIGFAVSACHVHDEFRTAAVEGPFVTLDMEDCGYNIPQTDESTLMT
Kd [1] [µM],Kd [2] [µM],koff [2] [s⁻¹],kon [2] [M⁻¹ s⁻¹],Binder
0.135,,,,B1
0.185,,,,B2
0.172,,,,B3
,0.0179,0.000289,16100,B4
,0.017,0.00024,14100,B5
,0.0212,0.000274,12900,B6
,0.0186,0.000255,13700,B7
,0.0255,0.000425,16700,B8
,0.0183,0.000312,17000,B9
,0.0183,0.000228,12500,B10
,0.0905,0.00104,11400,B11
,0.0228,0.000278,12200,B12
,0.0378,0.000631,16700,B13
,0.0191,0.000456,23900,B14
,0.0192,0.000291,15200,B15
,0.0794,0.00101,12700,B16
,0.0178,0.000329,18500,B17
